Here are results for four molecules from patent US20090226437A1 (Genentech, published 2009).

A value given as a limit tells only on which side of the number the result lay.

Experiment [1] has as its target alphaEbeta7 on alphaEbeta7-transfected 293 cells (human) (UniProt P38570). Description: cell adhesion inhibition, alphaEbeta7 293 cells on coated huE-Cadherin, experiment 2 of 3.
For experiment [2] the target is unchanged. Put plainly: cell adhesion inhibition, alphaEbeta7 293 cells on coated huE-Cadherin, experiment 3 of 3.
Experiment [3] shares this target. Description: cell adhesion inhibition, alphaEbeta7 293 cells on coated huE-Cadherin, experiment 1 of 3.
For experiment [4], the target named is T1, Full length human integrin alpha4beta7 (expressed in 293 cells, purified by Fib504 affinity chromatography) (human, UniProt P13612 34-1032; P26010 20-798).
T1 construct: mature; also called immobilized alpha4beta7
T1 sequence (P13612 34-1032, chain 1 of 2): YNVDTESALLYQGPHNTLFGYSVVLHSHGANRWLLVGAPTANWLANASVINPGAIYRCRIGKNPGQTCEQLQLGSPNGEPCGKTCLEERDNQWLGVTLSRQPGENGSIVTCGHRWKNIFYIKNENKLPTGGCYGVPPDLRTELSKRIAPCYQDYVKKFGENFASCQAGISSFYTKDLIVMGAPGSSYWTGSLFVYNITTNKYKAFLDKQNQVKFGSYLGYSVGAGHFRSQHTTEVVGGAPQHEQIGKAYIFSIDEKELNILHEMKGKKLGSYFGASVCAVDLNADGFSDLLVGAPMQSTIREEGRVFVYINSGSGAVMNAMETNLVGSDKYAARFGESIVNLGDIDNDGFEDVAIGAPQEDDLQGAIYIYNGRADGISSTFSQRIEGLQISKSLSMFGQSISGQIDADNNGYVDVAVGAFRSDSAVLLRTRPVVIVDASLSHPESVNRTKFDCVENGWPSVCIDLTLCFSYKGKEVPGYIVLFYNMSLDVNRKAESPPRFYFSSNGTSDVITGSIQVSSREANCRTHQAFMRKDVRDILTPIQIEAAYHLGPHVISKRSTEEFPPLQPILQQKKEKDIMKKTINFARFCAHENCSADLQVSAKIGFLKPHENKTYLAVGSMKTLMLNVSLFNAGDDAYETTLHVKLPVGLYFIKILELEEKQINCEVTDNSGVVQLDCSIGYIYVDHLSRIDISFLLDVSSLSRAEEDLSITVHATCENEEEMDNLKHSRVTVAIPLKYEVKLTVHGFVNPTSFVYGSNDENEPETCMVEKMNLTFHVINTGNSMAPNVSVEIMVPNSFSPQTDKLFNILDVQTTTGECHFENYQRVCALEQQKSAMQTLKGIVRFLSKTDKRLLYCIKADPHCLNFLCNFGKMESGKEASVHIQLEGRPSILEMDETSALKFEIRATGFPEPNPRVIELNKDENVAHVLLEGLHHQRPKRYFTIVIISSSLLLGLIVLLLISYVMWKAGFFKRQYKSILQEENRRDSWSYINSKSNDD
T1 sequence (P26010 20-798, chain 2 of 2): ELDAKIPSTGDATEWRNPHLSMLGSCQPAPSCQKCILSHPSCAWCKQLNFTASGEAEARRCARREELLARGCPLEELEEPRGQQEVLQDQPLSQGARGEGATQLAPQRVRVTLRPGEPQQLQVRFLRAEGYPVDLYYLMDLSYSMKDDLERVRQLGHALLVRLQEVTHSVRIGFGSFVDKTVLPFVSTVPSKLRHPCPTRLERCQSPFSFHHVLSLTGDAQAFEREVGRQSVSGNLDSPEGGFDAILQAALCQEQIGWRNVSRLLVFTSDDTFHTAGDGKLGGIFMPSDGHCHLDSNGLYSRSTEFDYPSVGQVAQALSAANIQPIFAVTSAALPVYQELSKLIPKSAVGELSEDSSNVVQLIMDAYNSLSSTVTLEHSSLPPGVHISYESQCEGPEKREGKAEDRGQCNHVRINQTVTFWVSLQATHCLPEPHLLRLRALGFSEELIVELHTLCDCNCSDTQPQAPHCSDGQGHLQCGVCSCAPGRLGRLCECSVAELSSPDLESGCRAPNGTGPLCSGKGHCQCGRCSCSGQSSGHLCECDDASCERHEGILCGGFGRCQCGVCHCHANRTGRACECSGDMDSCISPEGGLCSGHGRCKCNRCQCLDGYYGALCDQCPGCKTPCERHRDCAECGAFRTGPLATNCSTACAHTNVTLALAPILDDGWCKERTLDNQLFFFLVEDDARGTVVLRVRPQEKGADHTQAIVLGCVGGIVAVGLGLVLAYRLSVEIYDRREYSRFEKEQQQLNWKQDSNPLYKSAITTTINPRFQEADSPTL
Description: BIAcore (column head 'BIAcore Affinity Assay (nM)'); per paragraph 379 the Fab was immobilised on a CM5 chip and human integrin alpha4beta7 injected. The row shows unchanged L1 … and L2 KYASQSIS in the 'Fib504•K RF framework', i.e. the starting Fib504K-RF graft. Here is the method: (§1) Affinity determinations were performed by surface plasmon resonance using a BIAcore™-3000 (Biacore, Piscataway, N.J.). Humanized Fib504 Fab variants were immobilized in 10 mM acetate pH 4.5 (ranging from 250 to 1500 response units (RU)) on a CM5 sensor chip and 2-fold dilutions of human integrin alpha4beta7 (1.5 to 770 nM) in TBSM containing 2% n-octylglucoside were injected. Each sample was analyzed with 5-minute association and 5 to 60-minute dissociation times. After each injection, the chip was regenerated using three 1-minute injections of 8 M urea. Binding response was corrected by subtracting the RU from a blank flow cell. A 1:1 Languir model of simultaneous fitting of kₒₙ and koff was used for kinetics analysis.
(§2) Libraries were generated as before using a soft randomization strategy simultaneously at each of the 6 HVRs for the Fib504K-RL and Fib504K-RF grafts and sorted on immobilized alpha4beta7 for 4 rounds of selection as described above. Enrichment was only observed for the library based on the Fib504K-RF graft. […] Most clones contained the change Y32L; in addition position 31 was frequently changed to D, S, P or N (FIG. 1C). In addition to the starting graft, Fib504K-RF, 3 clones were expressed and purified as Fab protein and further analyzed by Biacore as described above. […]

The target of experiment [5] is T1, Full length human integrin alpha4beta7 …. Description: phage binding assay (OD): Fab displayed on phage, immobilised alpha4beta7, albumin as control coat.
For experiment [6] the target is unchanged. Put plainly: SPR (BIAcore-3000), Fab immobilized, alpha4beta7 injected. Here is the method: as §1
Libraries were generated as before using a soft randomization strategy simultaneously at each of the 6 HVRs for the Fib504K-RL and Fib504K-RF grafts and sorted on immobilized alpha4beta7 for 4 rounds of selection as described above. Enrichment was only observed for the library based on the Fib504K-RF graft. […] Most clones contained the change Y32L; in addition position 31 was frequently changed to D, S, P or N (FIG. 1C). In addition to the starting graft, Fib504K-RF, 3 clones were expressed and purified as Fab protein and further analyzed by Biacore as described above. […] The results of the Biacore analysis are shown in Table 3, below, and indicate that selected variation in the HVRs and/or framework regions, disclosed herein, generated antagonist antibodies to alpha4beta7 having improved affinity relative to the starting antibody.

Experiment [7] has the same target. Description: SPR (BIAcore), Fab; reference Fib504 Fab. How it is done:
as §1, §2

For experiment [8] the target is unchanged. Put plainly: BIAcore (column head 'BIAcore Affinity Assay (nM)'); per paragraph 379 the Fab was immobilised on a CM5 chip and human integrin alpha4beta7 injected. Here is the method: as §1, §2

Chain of alphaEbeta7 on alphaEbeta7-transfected 293 cells (human) (P38570 19-1179, chain 1 of 2): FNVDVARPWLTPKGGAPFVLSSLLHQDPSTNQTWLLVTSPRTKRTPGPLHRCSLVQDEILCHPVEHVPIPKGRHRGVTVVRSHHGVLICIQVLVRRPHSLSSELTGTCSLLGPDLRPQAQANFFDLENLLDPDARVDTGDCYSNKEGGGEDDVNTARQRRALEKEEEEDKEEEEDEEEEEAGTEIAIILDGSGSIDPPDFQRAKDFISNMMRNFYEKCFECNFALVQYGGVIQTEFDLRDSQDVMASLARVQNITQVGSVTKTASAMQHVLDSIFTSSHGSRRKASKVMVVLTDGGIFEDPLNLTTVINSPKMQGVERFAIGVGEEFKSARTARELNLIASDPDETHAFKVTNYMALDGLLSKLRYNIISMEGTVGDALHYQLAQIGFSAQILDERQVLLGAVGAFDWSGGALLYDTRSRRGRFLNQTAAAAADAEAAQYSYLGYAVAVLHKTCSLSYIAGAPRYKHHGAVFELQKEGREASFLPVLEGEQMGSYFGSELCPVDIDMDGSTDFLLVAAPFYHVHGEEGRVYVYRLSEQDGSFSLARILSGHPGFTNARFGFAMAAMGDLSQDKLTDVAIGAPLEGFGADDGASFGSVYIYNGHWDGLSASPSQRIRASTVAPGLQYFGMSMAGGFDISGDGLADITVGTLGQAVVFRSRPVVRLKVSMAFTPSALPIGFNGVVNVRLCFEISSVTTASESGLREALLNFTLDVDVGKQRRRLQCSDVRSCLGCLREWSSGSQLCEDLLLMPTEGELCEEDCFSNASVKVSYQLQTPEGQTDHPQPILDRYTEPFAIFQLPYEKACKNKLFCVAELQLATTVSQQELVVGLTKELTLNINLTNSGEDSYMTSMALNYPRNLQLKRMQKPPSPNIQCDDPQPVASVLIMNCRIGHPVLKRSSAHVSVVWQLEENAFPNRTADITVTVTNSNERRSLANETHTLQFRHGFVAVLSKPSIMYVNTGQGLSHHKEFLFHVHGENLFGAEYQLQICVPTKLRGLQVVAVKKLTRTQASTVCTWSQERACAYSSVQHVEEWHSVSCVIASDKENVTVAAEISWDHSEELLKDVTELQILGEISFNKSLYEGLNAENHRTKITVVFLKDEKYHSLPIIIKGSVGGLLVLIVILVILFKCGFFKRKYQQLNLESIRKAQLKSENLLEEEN
Chain of alphaEbeta7 on alphaEbeta7-transfected 293 cells (human) (P26010 20-798, chain 2 of 2, further chain): as the sequence (P26010 20-798, chain 2 of 2) above

With HP2/1 (anti-alpha4, control) (antibody), the IC90 in experiment [1], in experiment [2] and in experiment [3] was greater than 100 nM each time.

B1: Fib504K-RF graft (Fib504K graft in the RF acceptor framework), Fab (Fab, V domains shown)
VH: EVQLVESGGGLVQPGGSLRLSCAASGFFITNNYWGWVRQAPGKGLEWVGYISYSGSTSYNPSLKSRFTISRDTSKNTFYLQMNSLRAEDTAVYYCAMTGSSGYFDFWGQGTLVTVSS
VL: DIQMTQSPSSLSASVGDRVTITCRASESVDTYLHWYQQKPGKAPKLLIKYASQSISGVPSRFSGSGSGTDFTLTISSLQPEDFATYYCQQGNSLPNTFGQGTKVEIKR
notes: number not given; also called hu504K-RF graft
For B1, the Kd in experiment [4] was 132 nM.

B2: Fib504-RF (Fib504 graft in the RF acceptor framework), Fab displayed on phage (Fab, name in Kabat numbering, V domains shown)
VH: EVQLVESGGGLVQPGGSLRLSCAASGFFITNNYWGWVRQAPGKGLEWVGYISYSGSTSYNPSLKSRFTISRDTSKNTFYLQMNSLRAEDTAVYYCAMTGSSGYFDFWGQGTLVTVSS
VL: DIQMTQSPSSLSASVGDRVTITCRASESVDTYLHWYQQKPGKAPKLLIYYASQSISGVPSRFSGSGSGTDFTLTISSLQPEDFATYYCQQGNSLPNTFGQGTKVEIKR
notes: It is built from the Fib504 graft chains with the RF framework changes; Tested as Fab on phage; also called hu504-RF
For the molecule B2, in experiment [5], the binding result was “no binding”.

B3: Variant hu504.32, Fab (Fab, V domains shown)
VH: EVQLVESGGGLVQPGGSLRLSCAASGFFITNNYWGWVRQAPGKGLEWVGYISYSGSTSYNPSLKSRFTISRDTSKNTFYLQMNSLRAEDTAVYYCAMTGSSGYFDFWGQGTLVTVSS
VL: DIQMTQSPSSLSASVGDRVTITCRASESVDDLLHWYQQKPGKAPKLLIKYASQSISGVPSRFSGSGSGTDFTLTISSLQPEDFATYYCQQGNSLPNTFGQGTKVEIKR
notes: T31D and Y32L in the light chain of the hu504 Kgraft; Tested as Fab; also called Variant 504.32; humanized variant 504.32
For the molecule B3, the Kd in experiment [6] was determined as 3 nM; in experiment [8], 3.5 nM. In experiment [7], the “fold tighter binding relative to the starting rat antibody” value was 3 fold.
